Results from publication PMC4260750.

Biological target: ADAM10 (endogenous, rat brain) (UniProt Q10743)
Assay: GST pull-down from rat brain homogenate
Details: reference: GST-SAP97wt, PKC-treated; sites T629

## SAP97 (GST-SAP97 and YFP-SAP97 constructs) (from UniProt Q62696) GST-SAP97-T629A, PKC-treated
  binding against the reference: weaker
